According to the supplement of paper PMC6755084:

tested on: F1*sub RNA substrate (template-directed ligation); test: fraction ligated after 30 min (ligated reads / total reads); higher = more ligase activity; sequences stand for … in GAGACCGCAACTGAAAAGTTGT…AGTTCTGCACGTAGAAGCAAAAGGC; conditions: 42 °C
Summary of the method: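 Templates from an oligo pool were PCR-amplified, transcribed with T7 and gel-purified to give the ribozyme variants. Ligated and unligated products were separated on gel, reverse transcribed using barcoded primers, and read on a MiSeq. A quality filter of ≥20 was applied to core bases. Fraction ligated was taken as ligated reads as a share of all reads per variant.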

Going from “TATCACTTTCGTAAGAACTTTGGATGGGTTA [3d1545]” to TATACTTGTCGTAAGACACTTTGGATGGGTT [3d947], the fraction ligated falls from 0.851 to 0.00683.

First: TATCATTGTCGAAGACACTTTGATGGGTTGA [3d1208]
Second: TATACTTGTCGTAAGACACTTTGAGGGTTGA [3d934]
The fraction ligated of the first is higher: 0.772 for the first, 0.0304 for the second.

Going from “TATCACTTGTCGTAACACTTTGGATGGGTTGA [2d222]” to “TATCCTTGTGAAGACACTTTGGATGGGTTGA [3d1001]”, the fraction ligated falls from 0.796 to 0.792.

Going from “TATCACTGTCGTAAGACACTTGGATGGGTTG [3d1446]” to “TATCATTGTCGTGACACTTTGGATGGGTTGA [3d1214]”, the fraction ligated falls from 0.807 to 0.792.

Compared with “TATCACTTGTCGTAAAACTTGGATGGGTTGA [3d2060]”, “TATCATTGTCGAAGACACTTTGGATGGGTTGA [2d114]” is higher in fraction ligated: 0.782 for the first, 0.798 for the second.

First: TATCACTTGTCGTAAGACCTTGGATGGTTGA [3d2187]
Second: TATCCTTTCGTAAGACACTTTGGATGGTTGA [3d981]
The fraction ligated of the first is higher: 0.127 for the first, 0.0298 for the second.

First: TACACTTGTCGTAAGACACTTTGGAGGGTTG [3d733]
Second: TACACTTGTGTAAGACACTTTGGATGGGTTGA [2d53]
The fraction ligated of the first is lower: 0.0821 for the first, 0.243 for the second.

First: TATCACTTGTTAGACACTTTGGATGGGTTGA [3d1705]
Second: TATCCTTGTGTAAGACCTTTGGATGGGTTGA [3d1006]
The fraction ligated of the first is higher: 0.842 for the first, 0.801 for the second.

Compared with ATCATTTCGTAAGACACTTTGGATGGGTTGA [3d87], “TATCACTTGTGTAAGAACTTTGGATGGGTTG [3d1771]” is higher in fraction ligated: 0.654 for the first, 0.85 for the second.

Compared with ATCACTTGTCGTAAACATTTGGATGGGTTGA [3d213], “TATCACTTGTCGTAAGACATTGATGGGTTGA [3d2208]” is higher in fraction ligated: 0.777 for the first, 0.778 for the second.

Going from “TATCACTTGTCAAGACATTTGGATGGGTTGA [3d1815]” to “TATCACTTGCGTAAGACACTGGATGGGTTGA [3d1681]”, the fraction ligated falls from 0.829 to 0.799.

Compared with TATACTTGTCTAAGACATTTGGATGGGTTGA [3d849], TCACTTGTCGTAAGACACTTTGGAGGGTTGA [3d20] is lower in fraction ligated: 0.811 for the first, 0.333 for the second.

Compared with TATACTTGTCTAAGACACTTTGGATGGGTTA [3d855], “TATCACTTGCGTAAGACCTTTGGTGGGTTGA [3d1669]” is higher in fraction ligated: 0.0424 for the first, 0.137 for the second.

Going from TATACTTGTCGTAAACCTTTGGATGGGTTGA [3d884] to TACACTTGTCGTAAGAACTTTGGTGGGTTGA [3d695], the fraction ligated falls from 0.494 to 0.0304.

Going from “TATCACTTTCGTAAGACACTTTGGATGGGTT [3d1583]” to TTCACTTGTCGTAGACACTTTGGATGGGTTGA [2d34], the fraction ligated rises from 0.22 to 0.798.

Going from TTCACTGTCGTAAGACCTTTGGATGGGTTGA [3d346] to “TATCATTGTGTAAGACACTTTGGATGGGTTGA [2d112]”, the fraction ligated rises from 0.795 to 0.824.

Compared with “TATCACTTGTGAAACACTTTGGATGGGTTGA [3d1719]”, “TATCATGTCTAAGACACTTTGGATGGGTTGA [3d1125]” is lower in fraction ligated: 0.842 for the first, 0.759 for the second.

First: TATCACTTGTCGAAGACCTTGGATGGGTTGA [3d1943]
Second: TATCACTTGTGTAAGACACTTTGGATGGTTG [3d1807]
The fraction ligated of the first is higher: 0.768 for the first, 0.115 for the second.

Going from TATACTTGTCGTAAGACACTTTGGAGGGTTGA [2d86] to ATCACTTGTTAAGACACTTTGGATGGGTTGA [3d156], the fraction ligated rises from 0.0419 to 0.787.

Compared with TATCTTGTCGAAGACACTTTGGATGGGTTGA [3d744], “TATCACTTGTCTAAGACCTTTGATGGGTTGA [3d1865]” is lower in fraction ligated: 0.755 for the first, 0.732 for the second.

Compared with ATCACTTGCGTAAGAACTTTGGATGGGTTGA [3d146], ATACTTGTCTAAGACACTTTGGATGGGTTGA [3d52] is lower in fraction ligated: 0.835 for the first, 0.24 for the second.

First: TATCATGTCGTAAGACACTTTGGATGGGTTG [3d1139]
Second: TATCACTGTCTAGACACTTTGGATGGGTTGA [3d1359]
The fraction ligated of the first is lower: 0.784 for the first, 0.822 for the second.

Going from TACACTTGTCGTAAACACTTTGGATGGTTGA [3d679] to TATACTTGTCGTAAGACATTTGGATGGGTTGA [2d82], the fraction ligated rises from 0.101 to 0.751.

Compared with TTCACTTGTCTAAGACACTTTGATGGGTTGA [3d410], ATACTTGTCGTAAGACACTTTGGATGGGTTA [3d65] is lower in fraction ligated: 0.312 for the first, 0.0347 for the second.

Compared with “TATCACTTGTGTAACACTTTGGATGGGTTGA [3d1732]”, TTCACTTTCGTAAGACACTTTGGATGGGTTA [3d369] is lower in fraction ligated: 0.841 for the first, 0.0133 for the second.

Going from TTCATTGTGTAAGACACTTTGGATGGGTTGA [3d320] to “TATCACTTGTCGTAGCACTTTGGATGGTTGA [3d2010]”, the fraction ligated rises from 0.137 to 0.171.

Going from “TATCATTGTCGTAAGACCTTTGGATGGGTTG [3d1261]” to TATCTTGTCGTAAGACACTTTGGATGGGTTG [3d757], the fraction ligated rises from 0.778 to 0.779.

Going from TACCTTGTCGTAAGACACTTTGGATGGGTTG [3d546] to TATACTTGTCGTAAGACATTGGATGGGTTGA [3d918], the fraction ligated rises from 0.719 to 0.786.
